Experimental findings from patent EP4306640A1 are described below.

The assay addresses human CXCR4 (C-X-C chemokine receptor type 4), endogenous on human leukemia cell lines (human) (UniProt P61073). The assay is described as follows: cell-based or functional assay.
Sequence of UniProt P61073 (P61073 whole entry): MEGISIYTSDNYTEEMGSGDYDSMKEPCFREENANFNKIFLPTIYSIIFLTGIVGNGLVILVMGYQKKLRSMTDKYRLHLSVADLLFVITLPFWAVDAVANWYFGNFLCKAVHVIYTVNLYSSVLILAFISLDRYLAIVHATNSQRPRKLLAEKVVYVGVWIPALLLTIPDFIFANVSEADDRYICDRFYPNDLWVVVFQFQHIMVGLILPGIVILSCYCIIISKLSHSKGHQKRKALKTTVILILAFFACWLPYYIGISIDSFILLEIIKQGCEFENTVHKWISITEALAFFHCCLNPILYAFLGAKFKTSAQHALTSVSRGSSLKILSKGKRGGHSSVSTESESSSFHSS

For the substance human CXCL12α (ligand), the stimulation of migration of BV-173 cells (chemotaxis assay), half-maximal stimulation came out at 3 nM; the stimulation of migration of Jurkat cells (chemotaxis assay), half-maximal stimulation amounted to 0.3 nM; the stimulation of migration of Nalm-6 cells (chemotaxis assay), half-maximal stimulation stood at 0.3 nM; the stimulation of migration of U937 cells (chemotaxis assay), half-maximal stimulation was 3 nM.
